This is an account of results in patent US20250353883A1 (Novartis, published 2025).

B1: Sso7d construct 4.1A03 (EGFR, Purif. No. 2) (designed binder)
chain: ATVKFTYQGEEKQVDISKIKIVDRYGQYIHFRYDEGGGANGWGWVSEKDAPKELLQMLEKQ
notes: Purified from E. coli on anti-APP columns; It is NGS hit no; 3, at 2.18%; also called Hit NO; not shown: APP tag of the vector
B2: Sso7d construct 4.1H02 (EGFR, Purif. No. 4) (designed binder)
chain: B1 chain with Y28W, N40D
notes: Purified from E. coli on anti-APP columns; not shown: APP tag of the vector
B3: Sso7d construct 4.2A08 (EGFR, Purif. No. 5) (designed binder)
chain: B1 chain with Y28N, R32Y
notes: Purified from E. coli on anti-APP columns; It is NGS hit 1, at 4.56%; also called Hit 1 NGS; not shown: APP tag of the vector
B4: Sso7d construct 4.1A02 (EGFR, Purif. No. 1) (designed binder)
chain: B1 chain with Y28W, R32N, N40Y
notes: Purified from E. coli BL21(DE3) on anti-APP columns; It was found 1x on the plate and was not in the NGS Top30
B5: Sso7d construct 4.2B11 (EGFR, Purif. No. 6) (designed binder)
chain: B1 chain with Y28N, R32N, N40W
notes: Purified from E. coli on anti-APP columns; It is NGS hit no; 24, at 0.89%; also called Hit No. 24; not shown: APP tag of the vector
B6: Sso7d construct 4.4E10 (EGFR, Purif. No. 7) (designed binder)
chain: B1 chain with R32Y, N40D
notes: as for B2

Changes are numbered by the printed parent chain.

This experiment addresses T1, human EGFR on HKB11 cells stably over-expressing hEGFR (human, UniProt P00533 25-1210).
T1 construct: whole, on cells; The control lines were HKB11 w.t. cells, which express EGFR endogenously, and HKB11 EGFR knockout cells; also called HKB11_EGFR; HKB11-EGFR transfected
Kind of experiment: FACS of purified APP-tagged Sso7d on EGFR-overexpressing HKB11 cells versus EGFR knock out cells.
As to B1, the binding result is given as “binds”.
As to B2, the binding result was “binds”.
As to B3, the binding result is “binds”.
Consider B4, for which the binding result is on record as “binds”.
In the case of B5 it was “binds”; in that of B6, “binds”.
